Common to all, as to assay: cell binding
Test [1] deals with T1, human MAdCAM expressed on cells (human, UniProt Q13477 19-382).
T1 construct: whole, on cells; also called MADCAM1
T1 sequence (looked up): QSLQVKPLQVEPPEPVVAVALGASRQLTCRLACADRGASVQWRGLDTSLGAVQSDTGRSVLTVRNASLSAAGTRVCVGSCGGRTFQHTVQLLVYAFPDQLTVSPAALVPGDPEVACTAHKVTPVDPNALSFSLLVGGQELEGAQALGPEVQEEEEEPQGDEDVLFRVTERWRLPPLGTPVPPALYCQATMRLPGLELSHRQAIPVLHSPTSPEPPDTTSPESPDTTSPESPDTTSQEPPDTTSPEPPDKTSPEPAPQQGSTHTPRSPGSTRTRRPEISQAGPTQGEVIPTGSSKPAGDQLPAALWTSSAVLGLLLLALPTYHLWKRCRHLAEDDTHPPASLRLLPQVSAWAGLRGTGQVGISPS

Test [2] concerns the target T2, mouse MAdCAM expressed on cells (mouse, UniProt Q61826 22-405).
T2 construct: whole, on cells
T2 sequence (looked up): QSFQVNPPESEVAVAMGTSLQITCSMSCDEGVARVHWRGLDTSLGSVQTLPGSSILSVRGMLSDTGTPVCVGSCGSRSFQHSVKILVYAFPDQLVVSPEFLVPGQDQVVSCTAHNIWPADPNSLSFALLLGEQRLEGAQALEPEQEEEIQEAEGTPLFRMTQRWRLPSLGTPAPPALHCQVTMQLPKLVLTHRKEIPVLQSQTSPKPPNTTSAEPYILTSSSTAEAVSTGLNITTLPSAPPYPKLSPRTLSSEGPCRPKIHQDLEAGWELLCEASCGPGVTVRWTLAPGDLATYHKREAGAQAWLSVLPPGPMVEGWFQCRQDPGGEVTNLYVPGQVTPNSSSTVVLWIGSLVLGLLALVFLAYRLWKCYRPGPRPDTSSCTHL

Test [3] has as its target T1, human MAdCAM expressed on cells. This is another data set of the same source.
Test [4] addresses T2, mouse MAdCAM expressed on cells. This is another data set of the same source.

Like-named read-outs stand apart in the source and are kept apart here.

The values below come from patent US20200392228A1 (PANDION OPERATIONS, published 2020).

B1: MAdCAM antibody Clone ID 38 of Table 6 (scFv) (scFv)
scFv: EVQLLESGGGLVQPGGSLRLSCAASGFTFGSYSMSWVRQAPGKGLEWVSAIGTGGGTYYADSVKGRFTISRDNSKNTLYLQMNSLRAEDTAVYYCAKGTPYYYYYGMDVWGQGTMVTVSSGGGGSGGGGSGGGGSGGGGSDIQMTQSPSSLSASVGDRVTITCRASQPLSNWLAWYQQKPGKAPKLLIYAASSLQSGVPSRFSGSGSGTDFTLTISSLQPEDFATYYCQQAISFPLTFGGGTKVEIK
In the case of B1, the binding result in test [1] is listed as “binds”; in test [2], “no binding”.

B2: MAdCAM antibody Clone ID 31 of Table 6 (scFv) (scFv)
scFv: QVQLVQSGAEVKKPGASVKVSCKASGYTFTSYYMHWVRQAPGQGLEWMGIINPSGGSTSYAQKFQGRVTMTRDTSTSTVYMELSSLRSEDTAVYYCARDTGYSYGRYYYYGMDVWGQGTLVTVSSGGGGSGGGGSGGGGSGGGGSDIQMTQSPSSLSASVGDRVTITCRASQSIGRWLAWYQQKPGKAPKLLIYDASNLQSGVPSRFSGSGSGTDFTLTISSLQPEDFATYYCQQSYSIPITFGQGTKVEIK
Take B2: the binding result in test [1] was “binds”; in test [2], “no binding”.

B3: MAdCAM antibody Clone ID 36 of Table 6 (scFv) (scFv)
scFv: QVQLVQSGAEVKKPGASVKVSCKASGYTFTGHYMHWVRQAPGQGLEWMGIINPSGGSTSYAQKFQGRVTMTRDTSTSTVYMELSSLRSEDTAVYYCARDTGYSYGRYYYYGMDVWGQGTTVTVSSGGGGSGGGGSGGGGSGGGGSDIQMTQSPSSLSASVGDRVTITCRASQSIGRWLAWYQQKPGKAPKLLIYDASNLQSGVPSRFSGSGSGTDFTLTISSLQPEDFATYYCQQSYSIPITFGGGTKVEIK
Turning to B3, the binding result in test [1] is listed as “binds”; in test [2] it was “no binding”.

B4: MAdCAM antibody Clone ID 27 of Table 6 (scFv) (scFv)
scFv: QVQLVQSGAEVKKPGASVKVSCKASGYTFTGYYIHWVRQAPGQGLEWMGWMNPNSGNTGYAQKFQGRVTMTRDTSTSTVYMELSSLRSEDTAVYYCARDPGFLGYCSGGSCYDGWFDPWGQGTLVTVSSGGGGSGGGGSGGGGSGGGGSDIQMTQSPSSLSASVGDRVTITCRASQSISSYLHWYQQKPGKAPKLLIYAASSLQSGVPSRFSGSGSGTDFTLTISSLQPEDFATYYCQQSYTAPYTFGQGTKLEIK
Take B4: the binding result in test [1] was “binds”; in test [2] it was “no binding”.

B5: MAdCAM antibody Clone ID 28 of Table 6 (scFv) (scFv)
scFv: QVQLVQSGAEVKKPGASVKVSCKASGYTFTDYFLHWVRQAPGQGLEWMGWMNPTSGNTGYAQKFQGRVTMTRDTSTSTVYMELSSLRSEDTAVYYCAREGEGSGFDYWGQGTLVTVSSGGGGSGGGGSGGGGSGGGGSDIQMTQSPSSLSASVGDRVTITCRASQGINSWLAWYQQKPGKAPKLLIYDASNLETGVPSRFSGSGSGTDFTLTISSLQPEDFATYYCQQSYSTPLTFGGGTKVEIK
Consider B5, for which the figures for the binding result in test [1] and in test [2] were “binds” and “no binding”, respectively.

B6: MAdCAM antibody Clone ID 32 of Table 6 (scFv) (scFv)
scFv: QVQLVQSGAEVKKPGASVKVSCKASGYTLTDYYMHWVRQAPGQGLEWMGIINPSGGSTSYAQKFQGRVTMTRDTSTSTVYMELSSLRSEDTAVYYCAREEYSSSSGYFDYWGQGTLVTVSSGGGGSGGGGSGGGGSGGGGSDIQMTQSPSSLSASVGDRVTITCRASQGISSWLAWYQQKPGKAPKLLIYAASSLQSGVPSRFSGSGSGTDFTLTISSLQPEDFATYYCQQSYSTPLTFGQGTKVEIK
With B6, the binding result in test [1] is “binds”; in test [2], “no binding”.

B7: MAdCAM antibody Clone ID 29 of Table 6 (scFv) (scFv)
scFv: QVQLVQSGAEVKKPGASVKVSCKASGYTFTSYYMHWVRQAPGQGLEWMAWMNPNSGNTGYAQKFQGRVTMTRDTSTSTVYMELSSLRSEDTAVYYCARDYDFWSGSLGYWGQGTLVTVSSGGGGSGGGGSGGGGSGGGGSDIQMTQSPSSLSASVGDRVTITCRASQGISNYLAWYQQKPGKAPKLLIYAASSLQSGVPSRFSGSGSGTDFTLTISSLQPEDFATYYCQQSYSTPWTFGQGTKVEIK
For B7, the values for the binding result in test [1] and in test [2] were “binds” and “no binding”, respectively.

B8: MAdCAM antibody Clone ID 39 of Table 6 (scFv) (scFv)
scFv: QVQLVQSGAEVKKPGASVKVSCKASGYTFTSYYMHWVRQAPGQGLEWMGWMNPNSGNTGYAQKFQGRVTMTRDTSTSTVYMELSSLRSEDTAVYYCARDLGYYDSSGYFGAFDIWGQGTTVTVSSGGGGSGGGGSGGGGSGGGGSDIQMTQSPSSLSASVGDRVTITCQSSEDISSSLNWYQQKPGKAPKLLIYAASSLQIGVPSRFSGSGSGTDFTLTISSLQPEDFATYYCQQTYSTPYTFGQGTKVEIK
For the molecule B8, the values for the binding result in test [1] and in test [2] were “binds” and “no binding”, respectively.

B9: MAdCAM antibody Clone ID 35 of Table 6 (scFv) (scFv)
scFv: EVQLLESGGGLVQPGGSLRLSCAASGFSFSSYTMNWVRQAPGKGLEWVSFITSSSRTIYYADSVKGRFTISRDNSKNTLYLQMNSLRAEDTAVYYCARDRRGDYGDSWYFDLWGRGTLVTVSSGGGGSGGGGSGGGGSGGGGSEIVMTQSPATLSVSPGERATLSCRASQSVRNYLAWYQQKPGQAPRLLIYGASTRATGIPARFSGSGSGTEFTLTISSLQSEDFAVYYCQQYGSSPLTFGGGTKVEIK
Consider B9, for which the figures for the binding result in test [1] and in test [2] were “binds” and “no binding”, respectively.

B10: MAdCAM antibody Clone ID 13 of Table 7 (IgG) (antibody, V domains shown)
VH: QVQLVQSGAEVKKPGASVKVSCKASGYTFTTYYMHWVRQAPGQGLEWMGGFDPEDGETIYAQKFQGRVTMTRDTSTSTVYMELSSLRSEDTAVYYCARHAVAGAVGAGYYYYGMDVWGQGTMVTVSS
VL: DIQMTQSPSSLSASVGDRVTITCRASESISNWLAWYQQKPGKAPKLLIYAASTLQSGVPSRFSGSGSGTDFTLTISSLQPEDFATYYCQQSYSVPFTFGPGTKVDIK
notes: IgG format
Regarding B10, the results for the binding result in test [3] and in test [4] were “binds” and “no binding”, respectively.

B11: MAdCAM antibody Clone ID 1 of Table 7 (IgG) (antibody, V domains shown)
VH: EVQLLESGGGLVQPGGSLRLSCAASGFTFSSYGMHWVRQAPGKGLEWVAVISDDGSDKYYADSVKGRFTISRDNSKNTLYLQMNSLRAEDTAVYYCTTSKYYYYYGMDVWGQGTTVTVSS
VL: DIQMTQSPSSLSASVGDRVTITCQASQDISKSLNWYQQKPGKAPKLLIYAASSLQSGVPSRFSGSGSGTDFTLTISSLQPEDFATYYCQQGYSTPLTFGGGTKVEIK
notes: IgG format
B11: the binding result in test [3] and in test [4] was “binds” in each case.

B12: MAdCAM antibody Clone ID 37 of Table 6 (scFv) (scFv)
scFv: QVQLVQSGAEVKKPGASVKVSCKASGYTFSKHFVHWVRQAPGQGLEWMGWMNPNSGNSGYAQKFQGRVTMTRDTSTSTVYMELSSLRSEDTAVYYCARGEGGYYYYGMDVWGQGTLVTVSSGGGGSGGGGSGGGGSGGGGSDIQMTQSPSSLSASVGDRVTITCRASQSISSWLAWYQQKPGKAPKLLIYAASTLQSGVPSRFSGSGSGTDFTLTISSLQPEDFATYYCQQSYSTPWTFGQGTKVEIK
For the molecule B12, the binding result in test [1] was “binds”; in test [2], “no binding”.

B13: MAdCAM antibody Clone ID 33 of Table 6 (scFv) (scFv)
scFv: QVQLVQSGAEVKKPGASVKVSCKASGYTFTSYGISWVRQAPGQGLEWMGWMHPKSGDTGLTQKFQGRVTMTRDTSTSTVYMELSSLRSEDTAVYYCARDTPYYYYGMDVWGQGTTVTVSSGGGGSGGGGSGGGGSGGGGSDIQMTQSPSSLSASVGDRVTITCRASQSISSWLAWYQQKPGKAPKLLIYAASSLQSGVPSRFSGSGSGTDFTLTISSLQPEDFATYYCQQSYSVPITFGQGTKVEIK
For B13, the binding result is recorded as “binds” in test [1] and “no binding” in test [2].
